In patent publication US11110182B2, “Multifunctional RNA nanoparticles and methods for treating cancer and therapeutic resistant cancer” (University of Cincinnati, priority 2016, dated 2021):

What was measured:
[1] = tested on: MCF-7/TAM cells; experiment: MTT assay, MCF-7/TAM cells; assay type: cell-based, human; conditions: 10 μg/mL pRNA and 1 μM tamoxifen, 48 h
Experimental: FIGS. 10A-10D. Evidence that pRNA-HER2apt-siMED1 nanoparticles silenced MED1 expression and sensitized two other HER2+ breast cancer cells to tamoxifen treatment. FIG. 10A) Two HER2-overexpressing breast cancer cell lines MCF7/TAM and FIG. 10B) MCF7/HER2, were treated with 10 μg/mL pRNA-HER2apt-siMED1 nanoparticles or scramble control for 48 h, and then MED1 protein level was determined using western blots. FIG. 10C) MCF7/TAM and FIG. 10D) MCF7/HER2 cells were treated with 10 μg/mL pRNA nanoparticles and/or 1 μM tamoxifen (TAM) as indicated for 48 h, and then cell growth was determined using an MTT assay.
Since MED1 has recently been reported to play key roles in tamoxifen resistance of human breast cancer, the combinational effects of pRNA-HER2apt-siMED1 nanoparticles with tamoxifen on the growth and metastatic potential of BT474 cells was examined. […] The combinational effect of pRNA-HER2apt-siMED1 nanoparticles with tamoxifen treatment on two other HER2-overexpressing breast cancer cells MCF-7/HER2 and MCF-7/TAM were also confirmed (FIGS. 10C-D).

[2] = tested on: ERα target genes TFF-1, c-Myc, cyclin D1 and MMP-9; experiment: Gene expression in xenograft tumor tissues by real-time PCR; assay type: in vivo, athymic nude mice
Excerpt: FIG. 6A) Whole lung tissues were fixed, embedded, and sectioned for H&E staining, and FIG. 6B) metastasis foci in the whole lung tissues were then counted. Arrow indicates the metastasis foci. Scale bar: 100 μm. FIG. 6C) After digesting tumor tissues with trypsin and 0.1% collagenase, tumor cells were stained for CD44 and CD24, and FIG. 6D) analyzed for CD44^+CD24^−/low stem cell population using flow cytometry. FIG. 6E) Total RNA in the tumor tissues was extracted using TRIZOL reagent, and the expression of TFF-1, FIG. 6F) c-Myc, FIG. 6G) cyclin D1, and FIG. 6H) MMP-9 were determined by real-time PCR.
Cell culture. Human breast cancer luciferase-overexpressing BT474 and MDA-MB-231 cells were maintained in DMEM medium (Hyclone, Thermo Scientific) supplemented with 10% fetal bovine serum (FBS, Sigma) and 1% penicillin/streptomycin (Corning) at 37° C. in a humidified atmosphere with 5% CO2.^53 • Generation of pRNA nanoparticles. The two strands of pRNA were synthesized with the DNA templates, which were amplified with overlapping primers (Sigma) by PCR methods, using a T7 promoter-controlled in vitro RNA transcription system as previously described^33 (Table 1). All the CTP and UTP used for synthesis of the pRNA nanoparticles were 2′-fluoro modified, except the control unmodified pRNA nanoparticles used in the stability assays. Following an overnight transcription at 37° C., RNA strands were purified using RNA clean and concentrator kits (ZYMO research) and examined by 8 M urea denatured 8% PAGE gel. pRNA nanoparticles were assembled by mixing the equal molar amounts of p1 and p2 strands and gradually annealing from 90° C. to 20° C. in 1×RNA annealing buffer containing 50 mM Tris-HCl (pH 7.5), 50 mM NaCl and 1 mM EDTA on a PCR machine. The generated pRNA nanoparticles were examined by 8% native PAGE gels as previously described.^33 To generate AF647-conjugated pRNA nanoparticles, a 5′-termial AF647-conjugated RNA strand was synthesized (TriLink) for annealing. • Characterization of pRNA nanoparticles. The hydrodynamic diameter and Tm value of pRNA nanoparticles were determined using dynamic light scattering and TGGE assay, respectively, as previously described.^54 The AFM imaging of the pRNA nanoparticles was performed at the University of Nebraska Medical Center imaging facility as previously reported.^55 Briefly, the pRNA nanoparticles (5 μL) were deposited on APS modified mica ^56 for a total of 2 min of incubation time. Excess samples were washed with DI water and dried under a flow of Argon gas. AFM images in air were acquired using MultiMode AFM NanoScope IV system (Bruker Instruments) operating in tapping mode with 1.5 Hz scanning rate. TESPA probes from Bruker were used for tapping mode imaging. […] For stability analyses, the pRNA nanoparticles were treated with RNase A, 8 M urea, or 10% FBS supplemented DMEM medium at 37° C., respectively. The integrity of the pRNA nanoparticles was examined through native PAGE gel electrophoresis. • pRNA nanoparticle cellular uptake assay. BT474 and MDA-MB-231 cells were seeded into 4-well Lab-Tek chamber slides (Nalge Nunc international, Thermo scientific) and incubated with 10 μg/mL AF647-conjugated pRNAs at 4° C. for 30 min. After washing with PBS for three times, cells were incubated at 37° C. for another hour. Cells were then fixed with 4% formaldehyde, permeated with 0.25% Trinton X-100, and stained with FITC-conjugated β-actin antibody (Sigma) and DAPI (Sigma). pRNA nanoparticle uptake was examined using a laser scanning confocal microscope (Zeiss). For flow cytometry analyses, BT474 cells were incubated with AF647-labeled pRNA nanoparticles at 37° C. for 3 h. After washing three times with PBS, the cellular uptake of pRNAs was determined using a BD LSRFortessa™ flow cytometer. • Real-time PCR. […]

[3] = tested on: ERα target genes TFF-1, c-Myc, cyclin D1; experiment: mRNA levels of ERα target genes by real-time PCR in BT474 cells; assay type: cell-based, human; conditions: BT474, 48 h
Experimental: FIG. 3A) BT474 cells were incubated with 10 μg/mL control and pRNA-HER2apt-siMED1 nanoparticles for 48 h, and MED1 mRNA level was determined by real-time PCR. FIG. 3B) BT474 cells were incubated directly with (as indicated by -) or transfected with indicated pRNAs using lipofectamine 2000. At 48 h post treatment, MED1 protein levels were determined by western blotting. FIG. 3C) BT474 cells were treated with 10 μg/mL pRNA nanoparticles for 48 h and assayed for cell viability by MTT assay. FIG. 3D) Cells were treated as above and seeded for migration, and FIG. 3E) invasion transwell assays. Scale bar: 50 μm. FIG. 3F) After pRNA treatment for 48 h, the mRNA levels of ERα target genes TFF-1, FIG. 3G) c-Myc, and FIG. 3H) cyclin D1 in BT474 cells were determined by real-time PCR.
Cell culture. Human breast cancer luciferase-overexpressing BT474 and MDA-MB-231 cells were maintained in DMEM medium (Hyclone, Thermo Scientific) supplemented with 10% fetal bovine serum (FBS, Sigma) and 1% penicillin/streptomycin (Corning) at 37° C. in a humidified atmosphere with 5% CO2.^53 • Generation of pRNA nanoparticles. The two strands of pRNA were synthesized with the DNA templates, which were amplified with overlapping primers (Sigma) by PCR methods, using a T7 promoter-controlled in vitro RNA transcription system as previously described^33 (Table 1). All the CTP and UTP used for synthesis of the pRNA nanoparticles were 2′-fluoro modified, except the control unmodified pRNA nanoparticles used in the stability assays. […] The hydrodynamic diameter and Tm value of pRNA nanoparticles were determined using dynamic light scattering and TGGE assay, respectively, as previously described.^54 The AFM imaging of the pRNA nanoparticles was performed at the University of Nebraska Medical Center imaging facility as previously reported.^55 Briefly, the pRNA nanoparticles (5 μL) were deposited on APS modified mica ^56 for a total of 2 min of incubation time. […] After washing three times with PBS, the cellular uptake of pRNAs was determined using a BD LSRFortessa™ flow cytometer. • Real-time PCR. […]

B1: pRNA-HER2apt-siMED1: 3-WJ pRNA nanoparticle bearing a HER2-targeting RNA aptamer and two different MED1 siRNAs; strands p1 SEQ ID NO: 3, p2 SEQ ID NO: 4 (nucleic acid)
chain 1: GGACAGUGAAAGUGAGUCAAAGGAUCAAUCAUGGCCAAAGAUGUUACUUUGAGAGCCUU
chain 2: GGCUCUCAAAGUAACAUCUAAGGCCAUGUGUAUGUGGGGGGAGGACGAUGCGGUCUGCUGUGCUUGAUAUGCCCCAGACGACUCGCCCCCCACAUACUUUGUUGAUCCAAUGACUCACUUUCACUGUCCUU
modifications: 2'-F modification; third strand may lack entry; pRNA-HER2apt-siMED1, p1; pRNA-HER2apt-siMED1, p2
B1 was tested, and the “combinational effect with tamoxifen on cell growth” value [1] was “confirmed”, the “MMP-9 expression in tumor tissues” value ([2]; combined with tamoxifen) was “further inhibited” and the “TFF-1 expression in tumor tissues” value ([2]; combined with tamoxifen) was “further inhibited”. For the same molecule, the “c-Myc expression in tumor tissues” value ([2]; combined with tamoxifen) was “further inhibited”, the “cyclin D1 expression in tumor tissues” value ([2]; combined with tamoxifen) was “further inhibited” and the “MMP-9 expression in tumor tissues” value ([2]; pRNA treatment) was “significantly down-regulated”. The “TFF-1 expression in tumor tissues” value ([2]; pRNA treatment) was “significantly down-regulated”, the “c-Myc expression in tumor tissues” value ([2]; pRNA treatment) was “significantly down-regulated” and the “cyclin D1 expression in tumor tissues” value ([2]; pRNA treatment) was “significantly down-regulated”. The “TFF-1 mRNA expression” value [3] was “significantly down-regulated”, the “c-Myc mRNA expression” value [3] was “significantly down-regulated” and the “cyclin D1 mRNA expression” value [3] was “significantly down-regulated”.
